# From patent publication US12491259B2, “Anti-variable MUC1* antibodies and uses thereof” (Minerva Biotechnologies Corporation, priority 2022, dated 2025)
# B1: MN20A10-MMAF (conjugate)
# VH: QVQLVESGGGLVKPGGSLRLSCAASGFTFSTYAMSWIRQAPGKGLEWVASIGRAGSTYYSDSVKGRFTISRDNAKNSLYLQMNSLRAEDTAVYYCARGPIYNDYDEFAYWGQGTLVTVSS
# VL: EIVLTQSPATLSLSPGERATLSCKSSQSVLYSSNQKNYLAWYQQKPGQAPRLLIYWASTRESGIPARFSGSGSGTDFTLTISSLEPEDFAVYYCHQYLSSLTFGGGTKVEIKR
# B2: MNC2-MMAF (conjugate)
# VH: EVQLVESGGGLVKPGGSLRLSCAASGFTFSGYAMSWVRQAPGKGLEWVSTISSGGTYIYYPDSVKGRFTISRDNAKNSLYLQMNSLRAEDTAVYYCARLGGDNYYEYFDVWGKGTTVTVSS
# VL: DIVLTQSPASLAVSPGQRATITCRASKSVSTSGYSYMHWYQQKPGQPPKLLIYLASNLESGVPARFSGSGSGTDFTLTINPVEANDTANYYCQHSRELPFTFGGGTKVEIKRT
# B3: MNC2-Deruxtecan (conjugate)
# VH: B2 VH
# VL: B2 VL
# Tests used:
# [1] = tested on: HPAF II wild-type (WT) pancreatic cancer cells; assay: xCELLigence real-time killing assay (impedance); type: cell-based, human; details: for ADC concentration at which essentially all the tumor cells were killed: readout 120 hours post ADC addition
# Protocol: In this assay, impedance is measured in real-time. When the adherent cancer cells are killed and come off of the electrode surface, impedance (insulation) decreases. HPAF II wild-type (WT) pancreatic cancer cells were plated onto multi-electrode-well plates at 5,000 cells per well and allowed to adhere and grow for 24 hours before the addition of ADCs. Either MNC2-MMAE, DAR 4.1, MN20A10-MMAE, DAR 5.8, MNC2-MMAF, DAR 3.7, MN20A10-MMAF, DAR 3.8, MNC2-Deruxtecan, DAR 7.2, or MN20A10-Deruxtecan, DAR 4.6, was then added to the cancer cells. […] Taxol and Triton are added as the positive killing control. […] Taxol and Triton are added as the positive killing control. […] As indicated, essentially all the pancreatic tumor cells were killed at an MNC2-MMAE concentration of 56 nM. […] As indicated, essentially all the tumor cells were killed at an MNC2-MMAF concentration of 56 nM. […] Significant killing is measured at 120 hours at a concentration of about 56 nM. […] As indicated, essentially all the tumor cells were killed at an MN20A10-MMAE concentration of 56 nM-19 nM. […] As indicated, essentially all the tumor cells were killed at an MN20A10-MMAF concentration of 56 nM.
# To assess real-time killing of target cancer cells including breast cancer cells (T47D), non-small cell lung cancer cells (NCI-H1975) and pancreatic cancer cells (HP AF II) assays were performed on an xCELLigence RTCA MP Instrument (Agilent). Target Cancer cells were seeded onto a multi-electrode well plate at a density of 5000 cells/well (100 μL of a 50,000 cells/mL stock) and incubated for 24 hr in a 37° C./5% CO2 incubator. mAb MNC2 ADCs or mAb MN20A10-ADCs were prepared as a 2× solution in corresponding growth media and 100 μL of each concentration was added to target cells. As a positive control (100% cell killing) cells were treated with either 1% triton or 1 μM Taxol instead of ADC. After 40-120 hours incubation in a 37° C./5% CO2 incubator cell killing was assessed. In this assay, impedance is measured in real-time. […]
# [2] = tested on: high antigen (MUC1*) expressing cancer cells; assay: PrestoBlue plate reader killing assays over multiple cancer sub-types (FIGS. 38A-45D); type: cell-based; details: breast (T47D-MUC1*) and pancreatic (HPAF II-MUC1*) cancer cells
# Protocol: Therefore, although seldom done, it is critically important to test anti-cancer therapeutics against both the low antigen expressing early cancer cells and the later cancer cells that express high levels of the targeted antigen. In FIGS. 38A-45D, the ability of MNC2-ADCs and MN20A10-ADCs to kill multiple cancer sub-types was tested, where the tumors were either low-medium antigen expressing cancer cells or high antigen expressing cancer cells. […] The low expressing cancer cells were killed by treatment with either MNC2-ADC or MN20A10-ADC in the high nanomolar range of ADC, which is considered druggable. The cancer cells that expressed high levels of MUC1* were killed with IC50s in the single digit nanomolar range. […]
# Another method of measuring the killing activity of mAb MNC2-ADCs and mAb MN20A10-ADCs against target cancer cells including T47D breast cancer cells NCI-H1975 non-small cell lung cancer cells and HPAFII pancreatic cancer cells is to use the PrestoBlue live/dead cell assay (ThermoFisher). […] After 72 hour-120 hour incubation in a 37° C./5% CO2 incubator, cell viability was measure by fluorescence using the PrestoBlue HS assay (ThermoFisher). […] Fluorescence (Ex 560 nm/Em 590 nm) was recorded after 30-90 min. incubation using a Tecan plate reader. Percentage viability was determined by PrestoBlue HS staining and normalized to 1 μM taxol treated cells. […]
Molecule,ADC concentration at which essentially all the tumor cells were killed [1],concentrations at which cells engineered to express more MUC1* were killed [2],concentration with significant killing ([1]; at 120 hours)
B1,56 nM,very low nanomolar concentrations,–
B2,56 nM,very low nanomolar concentrations,–
B3,–,–,about 56 nM
